For one test, the target named is T1, GST-tagged Sin3A PAH1 (mouse, UniProt Q60520 119-195).
T1 sequence (looked up): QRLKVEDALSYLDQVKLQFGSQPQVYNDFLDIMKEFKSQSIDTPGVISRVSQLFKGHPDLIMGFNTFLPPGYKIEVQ
As to the kind of experiment: fluorescence polarisation. For orientation: Polarisation of emitted light reports the rotation of a fluorescent probe.

The target of test [1] is T2, ^15N,^13C-labeled Sin3A PAH1 (mouse, UniProt Q60520 119-195).
T2 sequence (looked up): T1 sequence (looked up)
The test is described as follows: NMR titration.

Here are results for 2 molecules from publication PMC8224932 (FEBS letters, 2020).

No end group written: not given here. TAMRA = carboxytetramethylrhodamine

Regarding {TAMRA}-EYDNYDELVAKSLLNLGKIAED (peptide, UniProt Q9UL68 193-214, looked up) [TAMRA-conjugated Myt1L^193−214 SID peptide], the Kd (as a rule, the equilibrium constant for the complex coming apart) in the test with GST-tagged Sin3A PAH1 was found to be 6 ± 0.9 µM.

Turning to EYDNYDELVAKSLLNLGKIAED (peptide, UniProt Q9UL68 193-214, looked up) [Myt1L^193−214 SID peptide (released from MBP)], the binding result in test [1] was “binds”.
